The values below come from article PMC8960804.

The assay concerns the target RexT, redox-sensing transcriptional regulator of Nostoc (Anabaena) sp. PCC 7120, tag-free, reduced (Nostoc (Anabaena) sp. PCC 7120). Put plainly: SEC; HiLoad 16/600 Superdex 200 pg, 50 mM HEPES pH 7.5, 100 mM NaCl, 5% v/v glycerol, 2 mM DTT.

“RexT, redox-sensing transcriptional regulator of Nostoc (Anabaena) sp. PCC 7120, tag-free, reduced (natural protein)”: the stoichiometry N is 2.

As usually defined, the stoichiometry N is a count of units in the complex or per binding partner.
